Paper PMC8524982

Test system: T1, His6-OsnR (Corynebacterium glutamicum), ORF:93dbb295
T1 sequence: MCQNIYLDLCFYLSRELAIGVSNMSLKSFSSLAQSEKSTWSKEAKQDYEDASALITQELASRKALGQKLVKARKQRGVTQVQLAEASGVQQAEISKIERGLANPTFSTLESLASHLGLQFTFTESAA
Assay: EMSA
Details: 20 mM HEPES pH 7.4, 2.5 mM MgCl2, 75 mM KCl, 0.5 mM EDTA, 2 mM DTT, 10% glycerol, 1 ug poly d(I-C), 100 ng/ul BSA; 30 ng DNA in 20 ul, 30 C, 30 min; 5% PAGE …

Row | Sequence | binding
1 | ACCGCTTCTAAGCACCCAACTCGCCAAAACTAGGACAACAGGTCGCCGCAGACAGTCGACCGCTTAAAACGCCACACAGCACCCCACTTCACATAACCCCAAGTCGGAAACAAAAGCCCCCAACCTGCACAGATGTCAACTATTTCAACCAGCCAGAAACTATCTCCAAAAGCTAATAAAACCCTTGCACTGACAAATAAGGCGACCTACCATGACTCTGTTTCCAACACATAAAAAGGATAAAAAATGTCACTTTCAGTCGTCGAGGCG (double strand) [cg0404 promoter] | no binding
2 | CAAGCGTGGGGATTCCTGGCTCGATGCTCATGCTTCACTTCCTTATCTTTTGAAACCATGTGCAGCTGTTTTTCTCTTCATTTTTCTCTTCATACACTGACACAGTTCAACTCAATCAAATAGTCAACTATGCAAGGTAGTCGACTATGTGGCATAGTCGCCATAGTTGAGTTTTATTCATGGCTTTTAGCTAGGCGACTTTAGTTGAGGGCTTTTAGTTGAGGGCTTCCCAGCAGGGATGGTTAAGGAGAATTCAGTGAACCAACAGAGTAAAAAGTGGCTCGTACCGACACTGGT (double strand) [cg0026 promoter] | binds
3 | GGCGAGGCCACGTTCAATCTTGCTTATTTCTGCCTGTTGGACTCCAGAAGCTTCAGCAAGTTGAACTTGGGTGACTCCTCGTTGTTTCCGAGCCTTGACTAGTTTTTGGCCAAGAGCTTTTCGTGAGGCGAGTTCTTGAGTGATTAGCGCGGAAGCGTCCTCGTAATCTTG (double strand) [osnR ORF (+110 to +286)] | no binding
4 | GGCTGCTCAGACATAAGATGTGCTCCTAATTTAGAAATCGGATGTGGGCTGGACTGGGAAGGCAACTAACTGGTGCTTTGTCGTCCACGTATCTCAACGCATATGACTATAAAAAGCTTCCCAAGTACCAGTTCAGTCTATAATTCGCGGTGTTATTGAGATGGTTTGAGGCTGGAAAGCTTCGATTGCAGCCAGTTGTTGAGTACTTCAGAGGCGTGATCTCTGGCGGGTTTCCTTGAGAGGAAAATATCGTGGCGAGCGTTGTCGATGAT (double strand) [mtr promoter] | no binding
5 | TTTGGTGGTGGGCAATGCTGCGACCATCTTTATGAATCTCATTGGCTGCCGGGAAGGCCGCGACCCCTTGCTGCTCATCGCGGTTCTCACGTTCCCGCTGTATTGGCTGCTCATGAGCATTGCAGCGTTGAAAGGCACGTGGCAATTGATCACGCGACCATCCTATTGGGAGAAAACTGCCCACGGATTGGAGGCGTAAGCGGTGCCCATCGTCAAACCAATGCCGGCACTG (double strand) [cg0165 promoter] | binds
